One assay concerns the target T1, rhLRP1 cluster II (Homo sapiens, UniProt Q07954).
T1 construct: rhLRP1 cluster II (aa 786-1165, C-terminal Fc, 1 μg); purchased R&D Systems; host or cells: NS0
T1 sequence (Q07954 786-1165): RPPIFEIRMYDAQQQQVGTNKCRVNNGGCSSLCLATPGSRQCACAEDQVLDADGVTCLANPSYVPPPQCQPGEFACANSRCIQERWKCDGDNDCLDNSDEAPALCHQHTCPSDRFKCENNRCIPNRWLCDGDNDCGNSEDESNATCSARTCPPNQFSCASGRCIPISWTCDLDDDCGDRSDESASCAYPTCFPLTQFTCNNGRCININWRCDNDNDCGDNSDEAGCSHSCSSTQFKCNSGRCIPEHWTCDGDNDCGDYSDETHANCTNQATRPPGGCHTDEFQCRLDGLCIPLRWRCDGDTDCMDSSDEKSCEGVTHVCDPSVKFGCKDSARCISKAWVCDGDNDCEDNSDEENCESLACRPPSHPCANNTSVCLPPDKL
As to the kind of experiment: Solid phase binding assay of RAP peptides. As for the experimental part:
Solid phase binding assays were carried out as follows. Recombinant murine VLDLR ectodomain (aa 1-798, C-terminal hexahistidine, 1 μg) or rhLRP1 cluster II (aa 786-1165, C-terminal Fc, 1 μg) were bound to Nunc Maxisorp™ 96-well plates in TBS pH 8 supplemented with 5 mM CaCl2 (TBSC) overnight at 4° C. Wells were washed with TBSC and then blocked with TBSC containing 2% BSA. Peptides were then incubated with the immobilized receptor at a range of concentrations for 2 hours in the above blocking buffer supplemented with 0.05% Tween-20 at room temperature. Identical binding reactions were done in the presence of 50 mM EDTA to provide a measure of non-specific binding. Control wells contained no added peptide. Additional controls established absence of cross-reactivity between antibodies and receptors. Wells were washed with TBSTC and bound peptides detected with streptavidin-HRP (Pierce) or polyclonal anti-RAP (1:1,000, Raptor Pharmaceutical). […] Absorption at 450 nm was measured with a microplate spectrophotometer (Molecular Devices). […]
The binding affinity of the peptides for LRP1 and VLDLR, another receptor in the LDLR family, was measured as follows. […] Bound peptides were detected with streptavidin-HRP after extensive washing. Binding values measured in the presence of EDTA were subtracted from values measured in the absence of EDTA in order to determine calcium-dependent binding levels. […]

In assay [1] the target is T2, LRP1 cluster II (LRP1-C2) (Homo sapiens, UniProt Q07954).
T2 construct: recombinant human LRP1 cluster II (amino acids 786-1165, with C-terminal Fc tag); purchased R&D Systems; host or cells: NS0
T2 sequence (Q07954 786-1165): T1 sequence (Q07954 786-1165)
As to the kind of experiment: Inhibition of RAP d3 binding to LRP1-C2 (ELISA). The method, then:
Binding inhibition assays were also carried out to determine the ability of the mRAPc peptide to interfere with RAP d3 binding to LRP1 (cluster II), as well as binding of LRP ligands α-2-macroglobulin and uPA/PAI-1. To allow complexation with streptavidin or an anti-biotin antibody, the mRAPc peptide was fitted with an N-terminal biotin residue separated from the RAP sequence by a pentapeptide linker (GGSGG). Solid phase binding assays were performed using recombinant human LRP1 cluster II (amino acids 786-1165, with C-terminal Fc tag, 1 μg, R&D Systems, Minneapolis, Minn.) to coat Nunc MAXISORP™ 96-well plates in TBS pH 8 supplemented with 5 mM CaCl2 (TBSC) overnight at 4° C. Data was generated by ELISA assay. Wells were washed with TBSC and blocked with TBSC containing 2% BSA. In assays involving complexes between streptavidin and biotinylated peptide, LRP1 ligands (RAP d3 (2 nM), trypsin-activated α-2-macroglobulin (1 nM) or uPA/PAI-1 (10 nM) were incubated with the immobilized receptor, in the presence or absence of inhibitors, for 2 hours in the above blocking buffer supplemented with 0.05% Tween-20 at room temperature. In assays involving complexes of the anti-biotin antibody and biotinylated peptide, all inhibitor solutions were pre-incubated with immobilized LRP1-C2 prior to washing and subsequent incubation with ligand. Since the ligand binding competence of CR pairs requires calcium, identical binding reactions were done in the presence of 50 mM EDTA to provide a measure of non-specific binding. Control wells contained no added inhibitor. Wells were washed with TBS supplemented with 5 mM CaCl2 and 0.05% Tween-20. Bound ligand was detected with either anti-S-peptide-HRP conjugate (Abcam, Cambridge, Mass.), anti-α-2-macroglobulin-HRP or anti-PAI-1-HRP. Excess HRP conjugate was removed and wells washed. Color was developed using TMB reagents (BioRad, Hercules, Calif.). Absorption at 450 nm was measured with a microplate spectrophotometer (Molecular Devices, Palo Alto, Calif.).
The ability of mRAPc, in the presence and absence of either streptavidin or anti-biotin antibody, to inhibit binding of recombinant RAP d3 to LRP1-C2 was measured. […] The multifold enhancement of inhibition seen in the presence of streptavidin is consistent with an improvement in avidity upon multimerization of the minimized RAP domain.
Given the relatively weak monovalent affinity of the anti-biotin antibody for biotin (low nanomolar KD), it was hypothesized that preassembly of a multivalent complex consisting of two, suitably proximate, receptor-bound peptides and a single antibody would stabilize the peptide-antibody complex. Therefore, the antibody and peptide, in a molar ratio of one to three, was incubated with the immobilized receptor prior to washing and subsequent addition of the RAP d3 ligand. The same procedure was performed for the controls; peptide alone, antibody alone and RAP. […] Next the effect of the multimerized mRAPc was determined. The multimerized mRAPc was compared to the mRAPc monomer and full-length RAP in the inhibition of binding of two other ligands to LRP1-C2, trypsin-activated α-2-macroglobulin and the uPA/PAI-1 complex, at a single ligand concentration. […] In both cases, the complex of streptavidin and mRAPc inhibited binding with an EC50 approximately midway between RAP and the mRAPc monomer.
Background: An ELISA detects its analyte on a solid surface through an enzyme-linked reagent.

For assay [2], the target named is LRP1, LRP1B, LRP2, SorLA, apoER2 and VLDLR. The following applies: read-out: dissociation constants; cited from earlier work.
Another assay deals with LDLR, LRP5 and LRP6. The following applies: cited from earlier work.

The values below come from patent US8440629B2, “Cyclic receptor-associated protein (RAP) peptides” (Raptor Pharmaceuticals Inc., priority 2007, dated 2013).

Like-named read-outs stand apart in the source and are kept apart here. Positions of bridges follow the written chain, without caps; N, C: chain ends. No end group written: not given here.

Consider “CEAKIEKHNHYQKQLEIAHEKLRHAESVGDGERVSRSREKHALLEGRTKELGYTVKKHGC (disulfide 1-60) [mRAP-14c]”, for which the Kd on rhLRP1 cluster II was around 21 nM.
For “streptavidin: streptavidin alone, control”, the “inhibitory effect (in words)” value in assay [1] (ligand and inhibitor incubated together) is “no inhibitory effect”.
Regarding “RAP: receptor-associated protein, mature human RAP (SEQ ID NO: 95)”, the “EC50 better than peptide assembled on streptavidin” value in assay [1] (FIG. 14A) is “about 8 fold”. Further, the “EC50 improvement over monomeric mRAPc peptide” value in assay [1] (FIG. 14A) came out at 64 fold. Moreover, the EC50 (usually the concentration needed to bring the measured effect to its halfway point) in assay [1] (inhibitor pre-incubated with immobilized receptor, washed, then ligand, FIG. 14B, read-out: EC50 of inhibition of RAP d3 binding) was 0.3 nM; in assay [1] (ligand and inhibitor incubated together, FIG. 14A, read-out: degree of inhibition (EC50) of RAP d3 binding), 0.5 nM. Moreover, the Kd in assay [2] is below 5 nM. In addition, in the assay on LDLR, LRP5 and LRP6, the “affinity lower than for LRP1” value is listed as “at least 10 fold”.
